Key:
[1] = target: T1, human CD3 receptor complex (human, UniProt P07766 23-207; P09693 23-182; P04234 22-171); assay: cell-based or functional assay
[2] = target: T1, human CD3 receptor complex; assay: cell-based or functional assay; remark: listed apart in the source
[3] = target: T1, human CD3 receptor complex; assay: flow cytometry on HUT78 cells (CD3-positive), FITC anti-human IgG detection
Procedure: (§1) Cell suspensions of CD19-positive cell lines (NALM6 (ATCC® CRL-3273™), Toledo (ATCC® CRL-2631™), Namalwa (ATCC® CRL-1432™), Daudi (ATCC® CCL-213™), Ramos (RA 1) (ATCC® CRL-1596™), Raji (ATCC® CCL-86™)) and CD3-positive cell lines (HuT78 (ATCC® TIB-161™), CCRF-CEM (ATCC® CCL-119™), Jurkat (ATCC® TIB-152™)) with the concentration of 2*10⁶ cells/mL were introduced by 30 μL into a 96-well plate with a V-shaped bottom (Corning Inc, Cat. No. 3894). […] When the incubation was over, the cells were twice washed with the FACS buffer and deposited by centrifuging at 1000 rpM and (4±2°) C. 30 μL of a solution of FITC-tagged antibodies directed against human IgG (Donkey F(ab)₂ Anti-Human IgG, Abcam, Cat. No. Ab102437) diluted in the 1:200 ratio were added into each well to the deposited cells, and incubated on ice in the dark for 30 minutes, followed by triple washing with the FACS buffer. Then the cells were fixed by re-suspending the cell deposit in each well in 150 μL of the FIX-buffer (phosphate buffered saline with 1%-solution of formalin). Cell fluorescence intensity in the FITC-channel was measured with the use of the Canto II cytometer.

[4] = target: T1, human CD3 receptor complex; assay: flow cytometry on Jurkat cells (CD3-positive), FITC anti-human IgG detection
Procedure: as §1

[5] = target: T1, human CD3 receptor complex; assay: flow cytometry on CCRF-CEM cells (CD3-positive), FITC anti-human IgG detection
Procedure: as §1

[6] = target: T1, human CD3 receptor complex; assay: flow cytometry on PBMCs of donor; competition of titrated BSAB with 100 nM biotin-conjugated BSAB, PE-streptavidin detection
Procedure: (§2) The blood was diluted with the same volume of the phosphate buffered saline (ECO-Servis, Cat. No. B-60201), layered above Ficoll density gradient (ρ=1.077 g/cm³) (“Pan-Eco”, Cat. No. P052) and centrifuged at 800 g and 20±2° C. for 30 minutes. PBMCs were collected at the phase boundary and washed twice with an isotonic phosphate buffered saline. A cell deposit was re-suspended in 15 mL of the DMEM/F12 medium (Sigma, Cat. No. D8900-10L) with 10% fetal bovine serum (GE Healthcare, Cat. No. SV30160) and incubated in a cultural vial (SPL Life Sciences Co, Cat. No. 70075) for attaching monocytes at 37±2° C. for 4 hours. Upon incubation, unattached cells were collected, a cell suspension was centrifuged, a cell deposit was re-suspended in the FACS buffer with a 1:100 Fc Blook solution (BD Pharmingen™, Cat. No. 564220) for inhibiting non-specific binding of Fc-receptors exposed on B-cell membranes. The prepared PBMC suspension with the cell concentration of 4*10⁶/mL was introduced by 50 μL (2*10⁵ cells per well) into a 96-well plate with a V-shaped bottom (Corning Inc, Cat. No. 3894).
(§3) Then a solution of biotin-conjugated BSAB with the concentration of 300 nM was prepared and introduced into wells with cells by 50 μL (preparation final concentration being 100 nM). […] Cell fluorescence intensity in the PE-channel was measured with the use of the Canto II cytometer. […]

[7] = target: T1, human CD3 receptor complex; assay: flow cytometry on PBMCs of donor beta; competition of titrated BSAB with 100 nM biotin-conjugated BSAB, PE-streptavidin detection
Procedure: as §2, §3

[8] = target: T1, human CD3 receptor complex; assay: flow cytometry on PBMCs of donor alpha; competition of titrated BSAB with 100 nM biotin-conjugated BSAB, PE-streptavidin detection
Procedure: as §2, §3

T1 sequence (P07766 23-207, chain 1 of 3): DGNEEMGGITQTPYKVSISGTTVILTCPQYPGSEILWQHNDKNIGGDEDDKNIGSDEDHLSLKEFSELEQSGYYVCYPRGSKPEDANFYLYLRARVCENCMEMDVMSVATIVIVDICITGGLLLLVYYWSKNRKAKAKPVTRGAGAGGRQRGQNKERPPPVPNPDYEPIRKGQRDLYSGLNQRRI
T1 sequence (P09693 23-182, chain 2 of 3): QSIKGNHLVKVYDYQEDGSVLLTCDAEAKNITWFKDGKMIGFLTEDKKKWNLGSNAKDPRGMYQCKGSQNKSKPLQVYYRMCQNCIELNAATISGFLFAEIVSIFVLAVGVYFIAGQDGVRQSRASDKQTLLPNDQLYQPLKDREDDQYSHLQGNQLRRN
T1 sequence (P04234 22-171, chain 3 of 3): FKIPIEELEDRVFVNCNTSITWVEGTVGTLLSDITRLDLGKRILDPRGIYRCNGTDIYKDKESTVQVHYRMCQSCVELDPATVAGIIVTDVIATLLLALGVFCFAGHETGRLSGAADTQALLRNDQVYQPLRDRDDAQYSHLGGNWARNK

B1: 309_02_A08 BSAB clone (bispecific antibody)
chain: DIQLTQTPASLAVSLGQRATISCKASQSVDYDGDSYLNWYQQIPGQPPKLLIYDASNLVSGIPPRFSGSGSGTDFTLNIHPVEKVDAATYHCQQSTEDPWTFGGGTKLEIKGGSGGAMAQVQLVQSGAEVKKPGASVKVSCKASGYTFTGYYMHWVRQAPGQGLEWMGIINPSGGSTSYAQKFQGRVTMTRDTSTSTVYMELSSLRSEDTAVYYCARTGKNYYYYGMDAWGQGTTVTVSSGGGGSGGGGSGGGASNFMLTQPHSVSESPGKTVTISCTRSSGSIARNYVQWYQQRPGSSPTTVIYEDNQRPSGVPDRFSASIDSSSNSASLTISGLQTEDEADYYCQSYDTSNHVVFGGGTKLTVLGQPAAAGGGGSQVQLQQSGAELVRPGSSVKISCKASGYAFSSYWMNWVKQRPGQGLEWIGQIWPGDGDTNYNGKFKGKATLTADESSSTAYMQLSSLASEDSAVYFCARRETTTVGRYYYAMDYWGQGTSVTVSSASAAVECPPCPAPPVAGPSVFLFPPKPKDTLMISRTPEVTCVVVDVSHEDPEVQFNWYVDGVEVHNAKTKPREEQFNSTFRVVSVLTVVHQDWLNGKEYKCKVSNKGLPAPIEKTISKTKGQPREPQVYTLPPSREEMTKNQVSLTCLVKGFYPSDIAVEWESNGQPENNYKTTPPMLDSDGSFFLYSKLTVDKSRWQQGNVFSCSVMHEALHNHYTQKSLSLSPGK
notes: described order VL CD3-VH CD19-VL CD19-VH CD3 with hinge and IgG2 Fc; the tie is not explicit; also called BSAB preparation
- EC50 of chemiluminescence signal, Raji cells with Jurkat-Luc-NFAT reporter cells [1]: 0.0023 nM
- Activity (EC50 for activation of Jurkat line cells, pM) [2]: 2.2 pM
- EC50 [3]: 1.2 nM
- EC50 [4]: 0.37 nM
- EC50 [5]: 0.4 nM
- IC50 [6]: 62.3 nM
- IC50 [7]: 66.5 nM
- IC50 [8]: 52.1 nM

B2: 400_03_H07 (bispecific antibody)
chain: DIQLTQTPASLAVSLGQRATISCKASQSVDYDGDSYLNWYQQIPGQPPKLLIYDASNLVSGIPPRFSGSGSGTDFTLNIHPVEKVDAATYHCQQSTEDPWTFGGGTKLEIKGGSGGAMAQVQLVESGGGVVQPGRSLRLSCAASGFTFSSYSMNWVRQAPGKGLEWVSSISSSSSYIYYADSVKGRFTISRDNAKNSLYLQMNSLRAEDTAVYYCARSGIAAAGFDYWGQGTLVTVSSGGGGSGGGGSGGGASNFMLTQPHSVSESPGKTVTISCARSSGSIASNYVQWYQQRPGSSPTTVIYEDNRRPSGVPDRFSGSFDSSSNSASLTISGLKTEDEADYYCQSYDSSNRVFGGGTKLTVLGQPAAAGGGGSQVQLQQSGAELVRPGSSVKISCKASGYAFSSYWMNWVKQRPGQGLEWIGQIWPGDGDTNYNGKFKGKATLTADESSSTAYMQLSSLASEDSAVYFCARRETTTVGRYYYAMDYWGQGTSVTVSSASAAVECPPCPAPPVAGPSVFLFPPKPKDTLMISRTPEVTCVVVDVSHEDPEVQFNWYVDGVEVHNAKTKPREEQFNSTFRVVSVLTVVHQDWLNGKEYKCKVSNKGLPAPIEKTISKTKGQPREPQVYTLPPSREEMTKNQVSLTCLVKGFYPSDIAVEWESNGQPENNYKTTPPMLDSDGSFFLYSKLTVDKSRWQQGNVFSCSVMHEALHNHYTQKSLSLSPGK
- Activity (EC50 for activation of Jurkat line cells, pM) [2]: 328 pM

B3: 309_04_A04 (bispecific antibody)
chain: DIQLTQTPASLAVSLGQRATISCKASQSVDYDGDSYLNWYQQIPGQPPKLLIYDASNLVSGIPPRFSGSGSGTDFTLNIHPVEKVDAATYHCQQSTEDPWTFGGGTKLEIKGGSGGAMAQVQLQQWGAGLLKPSETLSLTCAVYGGSFSGYYWSWIRQPPGKGLEWIGEISRSGTTNYNSSLKSRVTISVDTSKNQFSLKLSSVTAADTAVYYCARATRNGVFDYWGQGTLVTVSSGGGGSGGGGSGGGASNFMLTQPHSVSESPGKTVTISCTRSSGSIASNYVQWYQQRPGSAPSTVIYEDNQRPSGVPDRFSGSIDSSSNSASLTISGLKTEDEADYYCQSYDSGVVFGGGTKLTVLGQPAAAGGGGSQVQLQQSGAELVRPGSSVKISCKASGYAFSSYWMNWVKQRPGQGLEWIGQIWPGDGDTNYNGKFKGKATLTADESSSTAYMQLSSLASEDSAVYFCARRETTTVGRYYYAMDYWGQGTSVTVSSASAAVECPPCPAPPVAGPSVFLFPPKPKDTLMISRTPEVTCVVVDVSHEDPEVQFNWYVDGVEVHNAKTKPREEQFNSTFRVVSVLTVVHQDWLNGKEYKCKVSNKGLPAPIEKTISKTKGQPREPQVYTLPPSREEMTKNQVSLTCLVKGFYPSDIAVEWESNGQPENNYKTTPPMLDSDGSFFLYSKLTVDKSRWQQGNVFSCSVMHEALHNHYTQKSLSLSPGK
- Activity (EC50 for activation of Jurkat line cells, pM) [2]: 3.7 pM

B4: 309_02_F01 (bispecific antibody)
chain: DIQLTQTPASLAVSLGQRATISCKASQSVDYDGDSYLNWYQQIPGQPPKLLIYDASNLVSGIPPRFSGSGSGTDFTLNIHPVEKVDAATYHCQQSTEDPWTFGGGTKLEIKGGSGGAMAEVQLVQSGAEVKKPGASVKVSCKASGYTFTGYYMHWVRQAPGQGLEWMGWINPNSGGTNYAQKFQGRVTMTRDTSISTAYMELSSLRSEDTAVYYCARDKRYSSGWYENWGQGTLVTVSSGGGGSGGGGSGGGASNFMLTQPHSVSESPGKTVTISCTRSSGSIASKYVQWYQQRPGSSPTTVIYEDNQRPSGVPDRFSGSIDISSNSASLTISGLKTEDEADYFCQSYDSSSVIFGGGTKLTVLGQPAAAGGGGSQVQLQQSGAELVRPGSSVKISCKASGYAFSSYWMNWVKQRPGQGLEWIGQIWPGDGDTNYNGKFKGKATLTADESSSTAYMQLSSLASEDSAVYFCARRETTTVGRYYYAMDYWGQGTSVTVSSASAAVECPPCPAPPVAGPSVFLFPPKPKDTLMISRTPEVTCVVVDVSHEDPEVQFNWYVDGVEVHNAKTKPREEQFNSTFRVVSVLTVVHQDWLNGKEYKCKVSNKGLPAPIEKTISKTKGQPREPQVYTLPPSREEMTKNQVSLTCLVKGFYPSDIAVEWESNGQPENNYKTTPPMLDSDGSFFLYSKLTVDKSRWQQGNVFSCSVMHEALHNHYTQKSLSLSPGK
- Activity (EC50 for activation of Jurkat line cells, pM) [2]: 32.2 pM

B5: 400_01_D06 (bispecific antibody)
chain: DIQLTQTPASLAVSLGQRATISCKASQSVDYDGDSYLNWYQQIPGQPPKLLIYDASNLVSGIPPRFSGSGSGTDFTLNIHPVEKVDAATYHCQQSTEDPWTFGGGTKLEIKGGSGGAMAQVQLVQSGAEVKKPGSSVKVSCKASGGTFSSYAISWVRQAPGQGLEWMGGIIPIFGTANYAQKFQGRVTITADESTSTAYMEVRSLRSDDTAVYYCVRDRGDYGDITYFDYWGQGTLVTVSSGGGGSGGGGSGGGASNFMLTQPHSVSESPGKTVTISCTGSSGSIASNYVQWYQQRPGSAPTIVIYEDNHRPSGVPDRFSGSIDSSSNSASLTISGLKTEDEADYYCQSYDSSDRVVFGGGTKVTVLGQPAAAGGGGSQVQLQQSGAELVRPGSSVKISCKASGYAFSSYWMNWVKQRPGQGLEWIGQIWPGDGDTNYNGKFKGKATLTADESSSTAYMQLSSLASEDSAVYFCARRETTTVGRYYYAMDYWGQGTSVTVSSASAAVECPPCPAPPVAGPSVFLFPPKPKDTLMISRTPEVTCVVVDVSHEDPEVQFNWYVDGVEVHNAKTKPREEQFNSTFRVVSVLTVVHQDWLNGKEYKCKVSNKGLPAPIEKTISKTKGQPREPQVYTLPPSREEMTKNQVSLTCLVKGFYPSDIAVEWESNGQPENNYKTTPPMLDSDGSFFLYSKLTVDKSRWQQGNVFSCSVMHEALHNHYTQKSLSLSPGK
- Activity (EC50 for activation of Jurkat line cells, pM) [2]: 17.5 pM

From patent US20230212288A1 (published 2023)
